Broadly, the Kd is a measure of binding affinity in units of concentration.

The series has as its target T1, HsRAD51(H294V) H294V (Homo sapiens) (UniProt Q06609).
T1 sequence: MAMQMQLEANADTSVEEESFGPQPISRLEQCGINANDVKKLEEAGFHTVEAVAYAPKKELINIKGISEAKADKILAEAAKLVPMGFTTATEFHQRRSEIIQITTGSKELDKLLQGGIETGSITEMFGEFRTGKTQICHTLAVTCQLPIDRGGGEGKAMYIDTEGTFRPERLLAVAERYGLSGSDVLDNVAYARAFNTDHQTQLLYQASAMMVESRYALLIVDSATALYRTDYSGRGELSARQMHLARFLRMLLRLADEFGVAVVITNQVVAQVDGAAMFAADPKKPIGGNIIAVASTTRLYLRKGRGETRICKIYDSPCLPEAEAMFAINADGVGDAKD
Briefly: SPR. Conditions: SPR (Biacore 3000): 20 mM HEPES pH 7.5, 10% glycerol, 1 mM DTT, 1 mM MgCl2, 0.005% P-20, 2.5 mM indicated nucleotide, 150 mM KCl when indicated (text: salt …). (Surface plasmon resonance follows binding to a sensor surface in real time, without labels.)

For “TCGAGAGGGTAAACCACAATTATTGATATAAAATAGTTTTGGGTAGGCGA (double strand) [50 bp dsDNA]”, the Kd came to 472 nM.

The values above are taken from paper PMC3155514.
